Laboratory results: US20170313756A1
Where two headings read alike, the source gives them in different places. Values belong to the binder of their own block, whether it stands above or below them. [ ]: non-standard residue; d: D form. The star is where a group is joined. dCha = N[C@H](CC1CCCCC1)C(=O)O; NH(CH2)3Ph = c1ccc(CCCN*)cc1

Key:
[1] = target: melanocortin 1 receptor (MC1R) (UniProt Q01726); assay: 125I-NDP-MSH competition, HEK293 membranes
[2] = target: melanocortin 1 receptor (MC1R) (UniProt Q01726); assay: 125I-NDP-MSH competition, HEK293 membranes; remark: listed apart in the source
[3] = target: melanocortin 3 receptor (MC3R) (UniProt P41968); assay: 125I-NDP-MSH competition, HEK293 membranes
[4] = target: melanocortin 4 receptor (MC4R) (UniProt P32245); assay: 125I-NDP-MSH competition, HEK293 membranes
[5] = target: melanocortin 5 receptor (MC5R) (UniProt P33032); assay: 125I-NDP-MSH competition, HEK293 membranes
[6] = target: mouse MC1R (on murine B16-F1 melanoma cells) (mouse) (UniProt Q01727); assay: cell-based or functional assay
Chain of mouse MC1R (on murine B16-F1 melanoma cells) (mouse) (Q01727 whole entry): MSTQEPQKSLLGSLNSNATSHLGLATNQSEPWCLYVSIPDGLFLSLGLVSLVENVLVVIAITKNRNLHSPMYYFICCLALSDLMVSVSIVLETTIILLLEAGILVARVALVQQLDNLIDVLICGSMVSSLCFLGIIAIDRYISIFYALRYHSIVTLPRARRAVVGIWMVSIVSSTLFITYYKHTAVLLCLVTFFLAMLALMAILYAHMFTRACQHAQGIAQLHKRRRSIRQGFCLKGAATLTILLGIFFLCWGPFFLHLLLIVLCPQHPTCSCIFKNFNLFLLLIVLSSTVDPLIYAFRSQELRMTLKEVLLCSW

Chain of melanocortin 3 receptor (MC3R) (P41968 whole entry): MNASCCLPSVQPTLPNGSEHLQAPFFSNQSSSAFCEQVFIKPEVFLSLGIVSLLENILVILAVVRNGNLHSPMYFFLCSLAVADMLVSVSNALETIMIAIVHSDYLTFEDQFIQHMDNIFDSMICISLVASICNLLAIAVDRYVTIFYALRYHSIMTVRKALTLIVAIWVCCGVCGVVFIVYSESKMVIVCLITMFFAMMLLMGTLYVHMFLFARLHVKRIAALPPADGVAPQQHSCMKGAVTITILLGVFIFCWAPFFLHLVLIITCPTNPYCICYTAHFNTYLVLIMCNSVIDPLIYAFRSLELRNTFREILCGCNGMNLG
Chain of melanocortin 1 receptor (MC1R) (Q01726 whole entry): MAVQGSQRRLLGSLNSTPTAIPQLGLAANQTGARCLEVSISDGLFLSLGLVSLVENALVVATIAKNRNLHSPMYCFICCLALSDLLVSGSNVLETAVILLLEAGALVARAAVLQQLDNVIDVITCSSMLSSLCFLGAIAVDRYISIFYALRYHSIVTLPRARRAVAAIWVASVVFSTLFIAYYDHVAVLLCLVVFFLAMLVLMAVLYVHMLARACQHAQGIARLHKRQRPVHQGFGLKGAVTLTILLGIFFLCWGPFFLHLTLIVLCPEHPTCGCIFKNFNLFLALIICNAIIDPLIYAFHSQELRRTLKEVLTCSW
Chain of melanocortin 4 receptor (MC4R) (P32245 whole entry): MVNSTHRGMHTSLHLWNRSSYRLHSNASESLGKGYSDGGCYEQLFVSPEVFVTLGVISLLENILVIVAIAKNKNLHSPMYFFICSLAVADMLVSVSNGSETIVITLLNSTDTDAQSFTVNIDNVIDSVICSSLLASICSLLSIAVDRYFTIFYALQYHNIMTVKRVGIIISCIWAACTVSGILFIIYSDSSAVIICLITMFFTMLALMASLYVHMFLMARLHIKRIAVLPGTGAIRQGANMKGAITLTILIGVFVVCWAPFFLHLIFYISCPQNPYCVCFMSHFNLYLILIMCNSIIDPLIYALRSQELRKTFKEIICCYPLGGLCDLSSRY
Chain of melanocortin 5 receptor (MC5R) (P33032 whole entry): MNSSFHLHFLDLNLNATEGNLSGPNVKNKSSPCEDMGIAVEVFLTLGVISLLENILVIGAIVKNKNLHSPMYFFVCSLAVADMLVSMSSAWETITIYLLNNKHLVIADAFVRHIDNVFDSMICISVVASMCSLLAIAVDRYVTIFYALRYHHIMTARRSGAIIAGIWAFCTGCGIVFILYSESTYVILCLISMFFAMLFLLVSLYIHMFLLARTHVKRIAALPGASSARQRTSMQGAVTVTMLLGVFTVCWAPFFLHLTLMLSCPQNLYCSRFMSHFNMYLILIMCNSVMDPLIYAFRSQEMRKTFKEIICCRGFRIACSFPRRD

Ki [1]: 18 nM
B1: peptide 858 (peptide)
peptide: VPXGWRFHEMSYS
modifications: N-terminal acetyl (Ac); C-terminal amide; D-Norleucine at 3; D-isomers at all residues except Gly 4

Ki [1]: 150 nM
B2: peptide 847int (peptide)
peptide: H-[dV][dP][dK]G[dW][dR][dF][dH]-OH
SMILES: CC(C)[C@@H](N)C(=O)N1CCC[C@@H]1C(=O)N[C@H](CCCCN)C(=O)NCC(=O)N[C@H](Cc1c[nH]c2ccccc12)C(=O)N[C@H](CCCNC(=N)N)C(=O)N[C@H](Cc1ccccc1)C(=O)N[C@H](Cc1c[nH]cn1)C(=O)O

Ki [2]: 150 nM | Ki [1]: 104 nM
B3: peptide 847 (peptide)
peptide: H-[dV][dP][dK]G[dW][dR][dF][dH]-{NH(CH2)3Ph}
SMILES: CC(C)[C@@H](N)C(=O)N1CCC[C@@H]1C(=O)N[C@H](CCCCN)C(=O)NCC(=O)N[C@H](Cc1c[nH]c2ccccc12)C(=O)N[C@H](CCCNC(=N)N)C(=O)N[C@H](Cc1ccccc1)C(=O)N[C@H](Cc1c[nH]cn1)C(=O)NCCCc1ccccc1

Ki [1]: 75 nM
B4: peptide 861 (peptide)
peptide: VPKGXRFHEMSYS
modifications: N-terminal acetyl (Ac); C-terminal amide; 5-methoxy-D-Trp at 5; D-isomers at all residues except Gly 4

Ki [1]: 1.8 nM | Ki [3]: 18000 nM | Ki [4]: 10000 nM
B5: peptide 880 (peptide)
peptide: Ac-[dV][dP][dK]G[dW][dR]F[dH][dS][dI][dI][dS][dS]-NH2
SMILES: CC[C@@H](C)[C@@H](NC(=O)[C@@H](CO)NC(=O)[C@@H](Cc1c[nH]cn1)NC(=O)[C@H](Cc1ccccc1)NC(=O)[C@@H](CCCNC(=N)N)NC(=O)[C@@H](Cc1c[nH]c2ccccc12)NC(=O)CNC(=O)[C@@H](CCCCN)NC(=O)[C@H]1CCCN1C(=O)[C@H](NC(C)=O)C(C)C)C(=O)N[C@@H](C(=O)N[C@H](CO)C(=O)N[C@H](CO)C(N)=O)[C@H](C)CC

Ki [1]: 13.5 nM
B6: peptide 872 (peptide)
peptide: VPKGWRFREMSYS
modifications: N-terminal acetyl (Ac); C-terminal amide; D-isomers at all residues except Gly 4

Ki [1]: 2.2 nM | Ki [5]: 25000 nM
B7: peptide 869 (peptide)
peptide: VPKGWRXHEMSYS
modifications: N-terminal acetyl (Ac); C-terminal amide; D-cyclohexylalanine (D-Cha) at 7; D-isomers at all residues except Gly 4

Ki [1]: 1 nM | Ki [3]: 19000 nM | Ki [5]: 20000 nM | Ki [4]: 10000 nM
B8: peptide 886 (peptide)
peptide: Ac-[dV][dP][dK]G[dW][dR][dF][dH][dS][dI][dI][dS][dS]-NH2
SMILES: CC[C@@H](C)[C@@H](NC(=O)[C@@H](CO)NC(=O)[C@@H](Cc1c[nH]cn1)NC(=O)[C@@H](Cc1ccccc1)NC(=O)[C@@H](CCCNC(=N)N)NC(=O)[C@@H](Cc1c[nH]c2ccccc12)NC(=O)CNC(=O)[C@@H](CCCCN)NC(=O)[C@H]1CCCN1C(=O)[C@H](NC(C)=O)C(C)C)C(=O)N[C@@H](C(=O)N[C@H](CO)C(=O)N[C@H](CO)C(N)=O)[C@H](C)CC

Ki [2]: > 30000 nM
Binder: Ac-[dW][dR]F[dH]-NH2 [peptide 883]

Ki [1]: 3000 nM
B9: peptide 812 (peptide)
peptide: VPKGARFHEMSYS
modifications: N-terminal acetyl (Ac); C-terminal amide; D-isomers at all residues except Gly 4

Ki [1]: 0.43 nM | Ki [3]: 8000 nM | Ki [5]: 2500 nM | Ki [4]: 3200 nM | EC50, cAMP in B16-F1 cells [6]: 81 nM
B10: RI α-MSH analog 891 (peptide)
peptide: Ac-[dV][dP][dK]G[dW][dR][dCha][dH][dS][dI][dI][dS][dS]-NH2
SMILES: CC[C@@H](C)[C@@H](NC(=O)[C@@H](CO)NC(=O)[C@@H](Cc1c[nH]cn1)NC(=O)[C@@H](CC1CCCCC1)NC(=O)[C@@H](CCCNC(=N)N)NC(=O)[C@@H](Cc1c[nH]c2ccccc12)NC(=O)CNC(=O)[C@@H](CCCCN)NC(=O)[C@H]1CCCN1C(=O)[C@H](NC(C)=O)C(C)C)C(=O)N[C@@H](C(=O)N[C@H](CO)C(=O)N[C@H](CO)C(N)=O)[C@H](C)CC

Ki [1]: 282 nM
B11: peptide 877 (peptide)
peptide: VPKGWRFHEXSYS
modifications: N-terminal acetyl (Ac); C-terminal amide; α-methyl-D-Met at 10; D-isomers at all residues except Gly 4

Ki [1]: 5.4 nM
B12: peptide 868 (peptide)
peptide: VPKGWRXHEMSYS
modifications: N-terminal acetyl (Ac); C-terminal amide; 2-thienyl-D-Alanine at 7; D-isomers at all residues except Gly 4

Ki [1]: 480 nM
B13: peptide 867 (peptide)
peptide: VPKGWRXHEMSYS
modifications: N-terminal acetyl (Ac); C-terminal amide; 3-pyridyl-D-Alanine at 7; D-isomers at all residues except Gly 4

Ki [1]: 1.9 nM | Ki [3]: 15000 nM | Ki [5]: 4500 nM | Ki [4]: 14000 nM
B14: peptide 890 (peptide)
peptide: VPKGWRXHEXSYS
modifications: N-terminal acetyl (Ac); C-terminal amide; D-Cha at 7; D-buthionine at 10; D-isomers at all residues except Gly 4

Ki [1]: 1200 nM
B15: peptide 809 (peptide)
peptide: VPKGWRFAEMSYS
modifications: N-terminal acetyl (Ac); C-terminal amide; D-isomers at all residues except Gly 4

Ki [1]: 13000 nM
B16: peptide 811 (peptide)
peptide: VPKGWAFHEMSYS
modifications: N-terminal acetyl (Ac); C-terminal amide; D-isomers at all residues except Gly 4

Ki [1]: 3 nM
B17: peptide 857 (peptide)
peptide: VPXGWRFHEMSYS
modifications: N-terminal acetyl (Ac); C-terminal amide; D-Ornithine at 3; D-isomers at all residues except Gly 4

Ki [1]: 324 nM
B18: peptide 871 (peptide)
peptide: VPKGWRXHEMSYS
modifications: N-terminal acetyl (Ac); C-terminal amide; 4-Nitro-D-Phe at 7; D-isomers at all residues except Gly 4

Ki [1]: 832 nM
B19: peptide 879 (peptide)
peptide: VPKGWRFHEKSYS
modifications: N-terminal acetyl (Ac); C-terminal amide; D-isomers at all residues except Gly 4

Ki [1]: 128 nM
B20: peptide 862-b (peptide)
peptide: VPKGFRFHEMSYS
modifications: N-terminal acetyl (Ac); C-terminal amide; D-isomers at all residues except Gly 4

Ki [1]: 2.5 nM
B21: peptide 808 (peptide)
peptide: VPKGWRFHAMSYS
modifications: N-terminal acetyl (Ac); C-terminal amide; D-isomers at all residues except Gly 4

Ki [1]: 400 nM
B22: peptide 875 (peptide)
peptide: VPKGWRFHDMSYS
modifications: N-terminal acetyl (Ac); C-terminal amide; D-isomers at all residues except Gly 4

fold improvement of binding over wrFh [2]: > 250 fold | Ki [1]: 120 nM
Binder: Ac-[dW][dR]F[dH]-{1,6‑diaminohexane-stearyl} [peptide 882]

Ki [1]: 2.3 nM | Ki [3]: 40000 nM | Ki [5]: 30000 nM
B23: peptide 878 (peptide)
peptide: VPKGWRFHEXSYS
modifications: N-terminal acetyl (Ac); C-terminal amide; D-buthionine at 10; D-isomers at all residues except Gly 4

Ki [1]: 206 nM
B24: peptide 859 (peptide)
peptide: VPKGXRFHEMSYS
modifications: N-terminal acetyl (Ac); C-terminal amide; 3-benzothienyl-D-Alanine at 5; D-isomers at all residues except Gly 4

Ki [1]: 1400 nM
B25: peptide 807 (peptide)
peptide: VPKGWRFHEASYS
modifications: N-terminal acetyl (Ac); C-terminal amide; D-isomers at all residues except Gly 4

Ki [1]: 2500 nM
B26: peptide 870 (peptide)
peptide: VPKGWRWHEMSYS
modifications: N-terminal acetyl (Ac); C-terminal amide; D-isomers at all residues except Gly 4

Ki [1]: 2300 nM
B27: peptide 865 (peptide)
peptide: VPKGWHFHEMSYS
modifications: N-terminal acetyl (Ac); C-terminal amide; D-isomers at all residues except Gly 4

Ki [1]: 1900 nM
B28: peptide 873 (peptide)
peptide: VPKGWRFWEMSYS
modifications: N-terminal acetyl (Ac); C-terminal amide; D-isomers at all residues except Gly 4

Ki [1]: 96 nM
B29: peptide 860 (peptide)
peptide: VPKGXRFHEMSYS
modifications: N-terminal acetyl (Ac); C-terminal amide; 5-hydroxy-D-Trp at 5; D-isomers at all residues except Gly 4
